Molecular target: SARS-CoV-2 spike receptor-binding domain, ancestral (amino acids 331-529), biotinylated (SARS-CoV-2, ancestral (Wuhan), UniProt P0DTC2, biotin (RBD expression vector co-expressed with BirA-Flag, 100 μM biotin added))
Assay: BLI
Conditions: both partners purified

Binder	Kd	koff	kon
NIV-13 Fab (Fab, V domains shown) VH: EVQLLESGGGLVQPGGSLRLSCAASGFTFSRYALSWVRQAPGKGLEWVSAISGAAITTYYADSVKGRFTISRDDSRNTLFMQMDSLRAEDTAVYYCAKGDYYDSSGYLAEYFPHWGQGTLVTVSS VL: SYELTQPPSVSVSPGQTARITCFADALPKQHAYWYQQKAGQAPVLVIFKDTERPSGIPKRFSGSRSGATVTLTISGVQAEDEADYYCQSTDISGVLFGGGTKLTVL	7.33 pM	1.19e-06 s⁻¹	163000 M⁻¹ s⁻¹
NIV-10 Fab (Fab, V domains shown) VH: EVQLVESGGGLVQPGGSLRLSCAASGFTFYSYWMTWVRQAPGKGLEWVANIKHDESESHYVDSVRGRFTISRDNAKNSVYLQMKGLRAEDTAVYYCARDGGYNILTAYYHAPSYWGQGTLVTVSS VL: QSALTQPASVSGSPGQSITISCTGTSSDVGGYNFVSWYRQYPGKAPQLMIYDVSRRPSGDSDRFSGSKSGNTASLTISGLQAEDEAEYHCSSYTGRSPYVVFGGGTKVTVL	5.42 pM	1.24e-06 s⁻¹	223000 M⁻¹ s⁻¹
NIV-11 Fab (Fab, V domains shown) VH: QLVQSGPEVKKPGTSVKVSCKASGFTFYYSAVQWVRQARGQRLEWLGWMAVGSGKANYAQKFQERLTLTRDMSTSTAYMELSSLRSEDTAVYYCAAPNCTGGSCYDGFNLWGQGTVVTVSS VL: EIVLTQSPGTLSLSPGDRAILSCRASQTVNSNYLAWYQQKPGQAPRLLIYGTSSRATGIPDRFSGSGSGTDFTLTISRLEPEDFAVYYCQQYGSSPWLFGQGTKVEIK	20.8 pM	1.12e-06 s⁻¹	53600 M⁻¹ s⁻¹
NIV-8 Fab (Fab, V domains shown) VH: EVQLVESGGGVVQPGRSLRLSCAASGFKFSKFAMHWVRQAPGKGPEWVAVISYDGNQYHSADSVKGRFTISRDNSFNTLYLQMNSLGPEDTAVYYCARDGPDTSGYYANIYFDFWGQGTLVTVSS VL: QSVLTQPPSVSGAPGQRVTISCTGSSSNIGAGYDVHWYQQLPGRAPKLLIFDNNNRPSGVPDRFSGSKSGTSASLAITGLQTEDEAYYYCQSYDNSLILAVFGGGTKVTVL	10.9 pM	1.15e-06 s⁻¹	106000 M⁻¹ s⁻¹
